For three molecules, EC50 results are on record in patent US20250282892A1 (published 2025).

In general, EC50 refers to the concentration needed to bring the measured effect to its halfway point.

The target in one assay is HER3 His tag (UniProt P21860 20-643). The assay can be described thus: ELISA. In general terms: An ELISA detects its analyte on a solid surface through an enzyme-linked reagent.
In the next assay the target is EGFR His tag (UniProt P00533 25-645). The assay can be described thus: ELISA.
Assay [1] addresses EGFR tag free antigen (immobilized) (UniProt P00533 25-645). Nature of the assay: ELISA; dual-binding sandwich: immobilized EGFR-Fc + HER3-His.
For assay [2], the target named is HER3 tag free antigen (immobilized) (UniProt P21860 20-643). The assay can be described thus: ELISA; dual-binding sandwich: immobilized HER3-Fc + EGFR-His.

B1: BMX003-011 (humanized Patri-Cetu-Fc modified) (bispecific antibody)
heavy: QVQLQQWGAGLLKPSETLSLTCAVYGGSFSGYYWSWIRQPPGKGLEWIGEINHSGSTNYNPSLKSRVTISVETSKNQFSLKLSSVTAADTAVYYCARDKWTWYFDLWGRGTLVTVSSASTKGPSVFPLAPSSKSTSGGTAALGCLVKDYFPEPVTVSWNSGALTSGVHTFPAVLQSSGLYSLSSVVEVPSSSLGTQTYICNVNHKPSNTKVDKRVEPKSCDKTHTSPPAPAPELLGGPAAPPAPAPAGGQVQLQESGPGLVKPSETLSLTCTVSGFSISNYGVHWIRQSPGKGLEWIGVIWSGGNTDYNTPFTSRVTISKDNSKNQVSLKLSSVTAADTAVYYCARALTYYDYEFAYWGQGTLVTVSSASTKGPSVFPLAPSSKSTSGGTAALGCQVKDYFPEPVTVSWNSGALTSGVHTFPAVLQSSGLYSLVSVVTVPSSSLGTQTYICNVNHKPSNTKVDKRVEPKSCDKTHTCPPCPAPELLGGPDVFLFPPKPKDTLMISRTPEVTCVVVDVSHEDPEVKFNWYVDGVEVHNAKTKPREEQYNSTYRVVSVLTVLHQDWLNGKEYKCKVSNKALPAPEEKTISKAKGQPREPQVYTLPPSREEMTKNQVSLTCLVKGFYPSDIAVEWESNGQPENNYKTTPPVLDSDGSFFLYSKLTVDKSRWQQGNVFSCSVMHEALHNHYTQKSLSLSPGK
light 1: not shown
light 2: EIVLTQSPDFQSVTPKEKVTITCRASQSIGTNIHWYQQKPDQSPKLLIKYASESISGVPSRFSGSGSGTDFTLTINSLEAEDAATYYCQQNNNWPTTFGAGTKLEIKRTVAAPSVFIFPPSDEQLKSGTASVTCLLNNFYPREAKVQWKVDNALQSGNSQESVTEQDSKDSTYSLVSTLTLSKADYEKHKVYACEVTHQGLSSPVTKSFNRGEC
As for B1, the EC50 with HER3 His tag was found to be 0.0259 nM; with EGFR His tag it was 0.013 nM.

B2: BMX003-010 (humanized Patri-Cetu-Fc) (bispecific antibody)
heavy: not shown
light 1: not shown
light 2: EIVLTQSPDFQSVTPKEKVTITCRASQSIGTNIHWYQQKPDQSPKLLIKYASESISGVPSRFSGSGSGTDFTLTINSLEAEDAATYYCQQNNNWPTTFGAGTKLEIKRTVAAPSVFIFPPSDEQLKSGTASVTCLLNNFYPREAKVQWKVDNALQSGNSQESVTEQDSKDSTYSLVSTLTLSKADYEKHKVYACEVTHQGLSSPVTKSFNRGEC
Turning to B2, the EC50 with HER3 His tag was determined as 0.0223 nM; in the assay with EGFR His tag it was 0.0155 nM.

B3: Patri-Matu-Fc (bispecific antibody)
heavy: not shown
light 1: not shown
light 2: DIQMTQSPSSLSASVGDRVTITCSASSSVTYMYWYQQKPGKAPKLLIYDTSNLASGVPSRFSGSGSGTDYTFTISSLQPEDIATYYCQQWSSHIFTFGQGTKVEIKRTVAAPSVFIFPPSDEQLKSGTASVTCLLNNFYPREAKVQWKVDNALQSGNSQESVTEQDSKDSTYSLVSTLTLSKADYEKHKVYACEVTHQGLSSPVTKSFNRGEC
In the case of B3, the EC50 in assay [1] was 170 nM; in assay [2], 0.55 nM.
